Measurements published in the DeepSol protein solubility set.

experiment: soluble on expression in E. coli; label from the status in PepcDB or PDB records

Sequence | soluble on expression in E. coli
MNPIHDRTSDYHKYLKVKQGDSDLFKLTVSDKRYIWYNPDPKERDSYECGEIVSETSDSFTFKTVDGQDRQVKKDDANQRNPIKFDGVEDMSELSYLNEPAVFHNLRVRYNQDLIYTYSGLFLVAVNPFKRIPIYTQEMVDIFKGRRRNEVAPHIFAISDVAYRSMLDDRQNQSLLITGESGAGKTENTKKVIQYLASVAGRNQANGSGVLEQQILQANPILEAFGNAKTTRNNNSSRFGKFIEIQFNNAGFISGASIQSYLLEKSRVVFQSETERNYHIFYQLLAGATAEEKKALHLAGPESFNYLNQSGCVDIKGVSDSEEFKITRQAMDIVGFSQEEQMSIFKIIAGILHLGNIKFEKGAGEGAVLKDKTALNAASTVFGVNPSVLEKALMEPRILAGRDLVAQHLNVEKSSSSRDALVKALYGRLFLWLVKKINNVLCQERKAYFIGVLDISGFEIFKVNSFEQLCINYTNEKLQQFFNHHMFKVEQEEYLKEKINWTFIDFGLDSQATIDLIDGRQPPGILALLDEQSVFPNATDNTLITKLHSHFSKKNAKYEEPRFSKTEFGVTHYAGQVMYEIQDWLEKNKDPLQQDLELCFKDSSDNVVTKLFNDPNIASRAKKGANFITVAAQYKEQLASLMATLETTNPHFVRCIIPNNKQLPAKLEDKVVLDQLRCNGVLEGIRITRKGFPNRIIYADFVKRYYLLAPNVPRDAEDSQKATDAVLKHLNIDPEQYRFGITKIFFRAGQLARIEEAREPN | soluble
MADKKAPAAGWPVANGEYVVGNPESCVAVITLGSHGLDQAAIDAGAAISGPCHTENLGIEKVVANYISNPNIRFMVIAGSEVQGHITGQCIKALYENGIGDDGGIIGAKGAIPFMENVGKEPVGRLQTQVVECIDLIDVEDKGKIADAIKNCISKDPGAFEEDPMVIELEGGAAAAGDESTSIKPTSPEMALLEARMRIVSEKMNEAAMIAKFNSGYYNGK | not soluble
MATIPSVVREITLVGEQIFDHTQVVRAEIDRFVERFERNERHREFDGILRASHALVESSETPVEGLFDMGKMEHMTQCVDDITKKLQTLVEPKYQKEHDVYLEKVKEDQKKYVDVCREQAMNKMRSMTAHR | not soluble
MSLEEDIQKQIIAAKEEAHDETIWGKPANDIITGIGNNSGVRPQRAIWEMVQNARDVSLNGKADIVFERQHDCFIFQHNGISFTNNTLEALILQTSSKVRNDSVQVGQYGTGFLTTHKLGLKFTLSSSVQLLENEQLFHHFSNFLIDRSSTDKKQMRDSLKKQIKITEEWARNPTIVSGPSSLTTFRYIQEHEVEKMNTKEAFKASSALAPYVIALNPCVNSISFVDNVEDCKELYIRKSTEIINTCDFYNVVKVTIDKCETESCDFTVLMLQSKETVEESGEPKVIVILPIKELESKSVAFALSKDVPNLFIYLPLLGTEQWGLNFIFHSPLFTCDKDSRDSLRFVGNGQNNDVDAERNKGIIQLADVIVSHYITENLSNIQDCMYLAKVAFNLHNSDEALANYYKSLQSSWVKKYESFPFVITKNGNIITRQAKVFDKELFDACLENKDLLTAVYNVTVQIYGTDYLPLETNMLFWSETLLQWYEAESFNPHLIHLSDIVEYIDKNNITTIGEENLWCIDNYIANSKQIGLFTKYKLLPTKNGELRVREDLLNPIIHDESLLKILDSLLPNDVASFIHTRFVLFEDVKIEEYDHNKVKESMRLLVSELSDLQKGHEIYRTNILAGLDVDSNKYEQNKLSDNHINALMGFYAYIVNIGGEAFQYKMIHLLADFYNIDLKSGEAYIKEIYDWRTVAPLLIKDALFRFTLMDSEGHHHHHH | not soluble
MLFDMDGVLFDSMPYHAEAWHKTMKAHGLNLSREEAYMHEGRTGAGTINIVCQRQLGRDATQEEIESIYLEKSIEFNKHPQAERMPGAWELLQKIKAEGIIPTVVTGSGQASLLDRLEHNFPGMFRQELMVTAFDVKYGKPNPEPYLMALEKGGLKPNEAIVIENAPLGVEAGHKAGIFTIAVNTGPLNGEILLNAGADLLFPSMQALCESWEKLVRLLH | not soluble
SESQTLDKVYQMKSKPRGYCLIINNHNFAKAREKVPKLHSIRDRNGTHLDAGALTTTFEELHFEIKPHDDCTVEQIYEILKIYQLMDHSNMDCFICCILSHGDKGIIYGTDGQEAPIYELTSQFTGLKCPSLAGKPKVFFIQACQGDNYQKGIPVETASEEQPYLEMALSSPQTRYIPDEADFLLGMATVNNCVSYRNPAEGTWYIQSLCQSLRERCPRGDDILTILTEVNYEVSNKDDKKNMGKQMPQPTFTLRKKLVFPSDVEHHHHHH | soluble
MFYEKIQTPAYILEEDKLRKNCELLASVGEKSGAKVLLALKGFAFSGAMKIVGEYLKGCTCSGLWEAKFAKEYMDKEIHTYSPAFKEDEIGEIASLSHHIVFNSLAQFHKFQAKTQKNSLGLRCNVEFSLAPKELYNPCGRYSRLGIRAKDFENVDLSTIEGLHFHALCEESAGALEAVLKVFEEKFGKWIGQMKWVNFGGGHHITKKGYDVEKLIALCKNFSDKYGVQVYLEPGEAVGWQTGNLVASVVDIIENEKQIAILDTSSEAHMPDTIIMPYTSEVLNARILATRENEKISDLKESEFSYLLTGNTCLAGDVMGEYAFDKKLKIGDKIVFLDQIHYTIVKNTTFNGIRLPNLMLLNAKNELQMIREFSYKDYSLRN | not soluble
MGSDKIHHHHHHEPYSEIIEEDYVPTEADEIALLATTYSQLRFVMDWYGLFDLQEESGDVIVTPTRPNGWDDGGTYKQMHKHTWDNQQGQPQSIWDYCYKGIANANKILKRADEGFFTEESKPKVVAEVKGVRALWYSILCDTHGNIPIQTSFSEEVPVQSTRKQVFDFIINELKEVMPNLPTEVNKSTYGRLTQWGAKCLMARMYLNAGVYTGTPMWNECLEQCNDIINSGLFSLETNYTDIFKTENSGCVETIFAIPYDEVYNEGDNNGPVFGAHMKFLSSNSRKVFNMQTTPWGGSAANPQFINSYDPDDMRLKYTWLQGDQYSPDGVLITTFPNKLPSIYKTDTDDGYRVGKYEIKVGAKSLLSNDFPYFRYTEVLLMKAECLLRLGQNETEAAHIVSQIRERAFRESAHPEKATVDAAWLKGDTHINYGTLDEKGQIDDAGNTEVVELGGLYDEWGWEFAAEARRRTDMIRFGTYQKKSWFNHTPTANDLNGNSILFPIHLDHLNTNPNLQQNPGYAGK | not soluble
MDIKACYQNAKALLEGHFLLSSGFHSNYYLQSAKVLEDPKLAEQLALELAKQIQEAHLNIECVCSPAIGGILAGYELARALGVRFIFTERVDNTMALRRGFEVKKNEKILVCEDIITTGKSAMECAKVLEEKGAQIVAFGALANRGICKRAHSHLKAQEGACLPSHLPLFALEDFVFDMHKPSSCPLCATSVAIKPGSRGN | not soluble
MTIGTLPFDQETIRQRASEVNEAAWLTEFRLQALAQATELPMPTPDKTKIDKWDFIGKGDAAKQEPVSSLTELPEAVKNLIDENNSVLVQRTGTTAFVSLADEAKEKGVIFTDIVTAATEHAELVQKYLMKDGVKVDEHRLTALHAALINGGAFVYVPKNVVLETPLQAVFLVDGEEANVYNHVLFVADANSTATYVENYVANENAKGIANIVAEVIVEQGAQVKFGAVDLLAKDVTTYVNRRGVVGRDGRIDWALGLMNDGNTISENVTNLMGDGSYADTKTVTIGRGNQTQNFTTKVVHFGKHSEGWILKHGVQKDSATSIFNGIGKIEHGASKSNAQQSSRVLMLDEKARGDANPILLIDEDDVMAGHAASVGRVDPVQLYYLMSRGIPKREAERLVIHGFLAPVVNELPIEGVKAQLVEVIERKVR | not soluble
AIANDEYYLELSENPVQFENASSVNNVFFDEANKQVFAVRSGGATGVVVKGPDDKSSVAFRMDDKGEVKCIKFSLGNKILAVQRTTKSVDFINFIPDYPHLEFSHECKTKNASILGFCWTNWNEIVFVTDQGIEFYQVLPDKRTLKLLKSQSINVNWYIYCPETAVLLLSTTVQGNVLQPFAFKTATMSKMSKFEIELPAVPKPAKLSLSERDIAVATIYDQLYVMYLKHHSRTTNSPGAEVVLYHLPREGTCKRTNVLRLNTTGKFAINVVDNLVVVHHQTTQTSLIYDIKLRELDGNVNVHQPVLPARSINPFKIPLTGPAAAPSQAPLPCELYSSSWSVFQPDIIISASEGFLWYLQVKLQPTLNLLQDKGKLMDFLLRRRDCKMVILSVCSQMLIGGDKGNLSVVATVFDKLNQVYKEYLDAEQAYTAVNEQNSCFTLYLANTYNNM | soluble
MSISWGAQYPKLKTNLRLGINRLQLLGKKKTEMAMKARTEIADYIAANKPDRARIRVEHIIREDYVVEAFEILEMYCDLLLARFGLIEQMKTLDDGIAEAVISIMWAAPRLATDIAEFKTISDQLTIKYGKPFAEAARANQLEFPARVNPKIISKLGAAAPPKLLVERYMIEIAAAAGVPFVPDPDVMREDEVHQAEQILIDFKNAGGNGPSGPDGPPPPPSNPYGGSGNDNGSSGGGGGYGWNLENQSAIGSGVMPHGTAIGGGVQPVSNFIPPPPNRHPNEPPQDDENIYDHIPDVSGGNIYEVPSRDHYDFPPDAFNEEPPKTNPTTGVINLPKIGPNGLPIYPGQQQPKGPGGAQAYPALSQRNSLVNPNLQPNHPTAPPQSLRKPDDFSDLSFPEPPSSFVGGNNKPGGPGGNNGGGAGNGGFDDFDDLARRFEELKKIK | not soluble
MSIRLAQVTDIPVLKELLNQIFQVHQTVRPDLFKNTDKGSKYSETELKELLQDESKPIFVYTDGKNRVLGHLFLVIKETKGSSVSKPLKTLFIDDLCVSKEARGQKIGQELFEFALKYAKKLGCYDLTLNVWNDNKGALAFYERQGLKARETKMEKILLEHHHHHH | soluble
MGSDKIHHHHHHMDFAAIDKQISALEACIDSTVEVTPGEQLSVGVDLGTAYIVVVVLNAAGSPVACAMEFAQVIKDGLVVDYVGATRIVRRLVQQLEERLGRQLTHAAIAVPPGTGHKDSNTHRHVVEGAGLEVTAILDEPTAANAVLGVQNGVIVDIGGGTTGLSVIEDGKVTYVADEPTGGTHVSLVLAGSYRISFTEAEELKKDQDRQREILPVVRPVIQKMASIVNRHIEGRDISAIYLVGGTCCLKDFETVFEKETGRPVYKPANPFLVTPLGIALNCNA | not soluble
MLPVITRFARPALMAIRPVNAMGVLRASSITKRLYHPKVIEHYTHPRNVGSLDKKLPNVGTGLVGAPACGDVMRLQIKVNDSTGVIEDVKFKTFGCGSAIASSSYMTELVQGMTLDDAAKIKNTEIAKELSLPPVKLHCSMLAEDAIKAAIKDYKSKRNTPTMLS | not soluble
MSLKTTTSSTPSDRITWVRISSCYLPLATPISDAKVLTGRQKPMTEIAILFAEIETAGGHQGLGFSYSKRAGGPGQFAHAREIAPALIGEDPSDIAKLWDKLCWAGASAGRSGLSTQAIGAFDVALWDLKAKRAGLSLAKLLGSYRDSVRCYNTSGGFLHTPIDQLMVNASASIERGIGGIKLKVGQPDGALDIARVTAVRKHLGDAVPLMVDANQQWDRPTAQRMCRIFEPFNLVWIEEPLDAYDHEGHAALALQFDTPIATGEMLTSAAEHGDLIRHRAADYLMPDAPRVGGITPFLKIASLAEHAGLMLAPHFAMELHVHLAAAYPREPWVEHFEWLEPLFNERIEIRDGRMLVPTRPGLGLTLSGQVKAWTREEAQVGTRPEGHHHHHH | soluble
